Measured values taken from patent US20110097323A1 (published 2011).
Changes are numbered by the printed parent chain. In names and notes the source's numbering stands. Blank lines part the entries; values can stand above or below the binder they belong to.

Experiments:
CD16A F158 = CD16A F158 (human, UniProt P08637 17-208, limits assumed); assay: Table 3; relative to wild-type Fc; method not stated
CD32B (FcγRII-B) = biological target: T1, CD32B (FcγRII-B) (UniProt P31994 43-217, limits assumed); assay: as above
T1 construct: No species or construct stated
T1 sequence (looked up): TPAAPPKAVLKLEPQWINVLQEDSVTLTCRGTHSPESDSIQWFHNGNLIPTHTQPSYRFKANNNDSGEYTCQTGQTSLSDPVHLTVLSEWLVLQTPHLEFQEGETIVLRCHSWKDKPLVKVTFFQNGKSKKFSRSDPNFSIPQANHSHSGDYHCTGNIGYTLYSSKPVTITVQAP

CD16A V158 = CD16A V158 (human, UniProt P08637 17-208, limits assumed); assay: as above
HER-2 = biological target: T2, HER-2 (UniProt P04626 23-652, limits assumed); assay: SPR (BIAcore 1000), HER-2 amine-coupled to chip, antibody injected at 6.25-200 nM
T2 construct: also called HER2/neu; erbB-2
Method: The kinetic parameters of the binding of eluted and purified antibodies were analyzed using a BIAcore assay (BIAcore instrument 1000, BIAcore Inc., Piscataway, N.J.) and associated software. HER-2 was immobilized on one of the four flow cells (flow cell 2) of a sensor chip surface through amine coupling chemistry (by modification of carboxymethyl groups with mixture of NHS/EDC) such that about 1000 response units (RU) of receptor was immobilized on the surface. Following this, the unreacted active esters were “capped off” with an injection of 1M Et-NH2.

human CD16A (FcγRIII-A) = human CD16A (FcγRIII-A) (human, UniProt P08637 17-208, limits assumed); assay: method not stated; reference not named (Fc-optimized against wild-type)
Chain of human CD16A (FcγRIII-A) (P08637 17-208 limits assumed): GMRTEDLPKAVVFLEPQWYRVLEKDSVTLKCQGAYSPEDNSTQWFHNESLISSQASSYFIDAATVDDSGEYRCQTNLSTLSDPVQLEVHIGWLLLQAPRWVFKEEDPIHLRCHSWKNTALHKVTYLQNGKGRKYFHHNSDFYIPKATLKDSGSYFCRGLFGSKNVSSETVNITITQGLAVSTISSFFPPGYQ

Chain of CD16A V158 (P08637 17-208 F176V limits assumed): as the sequence (P08637 17-208 limits assumed) above, with F160V counted along it
Chain of CD16A F158 (P08637 17-208 limits assumed): as the sequence (P08637 17-208 limits assumed) above

B1: Fc variant R255L D270E Y300L P396L (other, UniProt P01857-1 99-330, looked up, name in EU numbering)
chain: EPKSCDKTHTCPPCPAPELLGGPSVFLFPPKPKDTLMISLTPEVTCVVVDVSHEEPEVKFNWYVDGVEVHNAKTKPREEQYNSTLRVVSVLTVLHQDWLNGKEYKCKVSNKALPAPIEKTISKAKGQPREPQVYTLPPSRDELTKNQVSLTCLVKGFYPSDIAVEWESNGQPENNYKTTPLVLDSDGSFFLYSKLTVDKSRWQQGNVFSCSVMHEALHNHYTQKSLSLSPGK
notes: domain: Fc region; positions are EU index
binding relative to wild-type Fc (fold) (CD16A F158): 1.74
binding relative to wild-type Fc (fold) (CD32B (FcγRII-B)): 0.87
binding relative to wild-type Fc (fold) (CD16A V158): 1.52

B2: Fc variant R292P V305I P396L (other, UniProt P01857-1 99-330, looked up, name in EU numbering)
chain: B1 chain with L40R, E55D, R77P, L85Y, V90I
notes: as for B1
binding relative to wild-type Fc (fold) (CD16A F158): 1.9
binding relative to wild-type Fc (fold) (CD32B (FcγRII-B)): 0.92
binding relative to wild-type Fc (fold) (CD16A V158): 1.85

The next lines start with the values.

koff (HER-2): ~3.2e-07 s⁻¹
kon (HER-2): 170000 M⁻¹ s⁻¹
B3: ch4D5-wild-type Fc (antibody, human IgG1, kappa)
heavy: not shown
light: DIVMTQSHKFMSTSVGDRVSITCKASQDVNTAVAWYQQKPGHSPKLLIYSASFRYTGVPDRFTGSRSGTDFTFTISSVQAEDLAVYYCQQHYTTPPTFGGGTKVEIKRTVAAPSVFIFPPSDEQLKSGTASVVCLLNNFYPREAKVQWKVDNALQSGNSQESVTEQDSKDSTYSLSSTLTLSKADYEKHKVYACEVTHQGLSSPVTKSFNRGEC
notes: Chimeric 4D5 antibody; wild-type Fc; also called ch4D5-FcWT; ch4D5-FcWT (wild-type Fc)

fold increase in binding (human CD16A (FcγRIII-A)): 10 fold
B4: ch4D5-FcMT1 (antibody, human IgG1, kappa)
heavy: QVQLQQSGPELVKPGASLKLSCTASGFNIKDTYIHWVKQRPEQGLEWIGRIYPTNGYTRYDPKFQDKATITADTSSNTAYLQVSRLTSEDTAVYYCSRWGGDGFYAMDYWGQGASVTVSSASTKGPSVFPLAPSSKSTSGGTAALGCLVKDYFPEPVTVSWNSGALTSGVHTFPAVLQSSGLYSLSSVVTVPSSSLGTQTYICNVNHKPSNTKVDKRVEPKSCDKTHTCPPCPAPELLGGPSVFLLPPKPKDTLMISRTPEVTCVVVDVSHEDPEVKFNWYVDGVEVHNAKTKPPEEQYNSTLRVVSILTVLHQDWLNGKEYKCKVSNKALPAPIEKTISKAKGQPREPQVYTLPPSRDELTKNQVSLTCLVKGFYPSDIAVEWESNGQPENNYKTTPLVLDSDGSFFLYSKLTVDKSRWQQGNVFSCSVMHEALHNHYTQKSLSLSPGK
light: B3 light
